Blank lines part the entries; values can stand above or below the molecule they belong to.
Tests used:
CD47 ECD (Homo sapiens) = CD47 ECD (Homo sapiens) (UniProt Q08722); details: cited from earlier work
[1] = target: CD200R ECD (Homo sapiens) (UniProt Q8TD46); details: cited from earlier work
[2] = target: CD200RLa ECD (Mus musculus) (UniProt Q6XJV4); details: cited from earlier work
[3] = target: CD200R ECD (Mus musculus) (UniProt Q9ES57); details: cited from earlier work
CD58 ECD (Homo sapiens) = CD58 ECD (Homo sapiens) (UniProt P19256); details: cited from earlier work
Chain of CD58 ECD (Homo sapiens) (P19256 29-215): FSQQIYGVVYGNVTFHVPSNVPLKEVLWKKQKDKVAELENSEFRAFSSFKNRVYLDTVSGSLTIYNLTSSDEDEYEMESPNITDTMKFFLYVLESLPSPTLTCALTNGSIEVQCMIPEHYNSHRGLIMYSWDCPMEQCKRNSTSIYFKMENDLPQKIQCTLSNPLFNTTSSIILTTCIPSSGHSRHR

[4] = target: T1, Acid-soluble human collagen type I (from human placenta) (human, UniProt P02452 162-1218; P08123 80-1119); experiment: SPR
T1 sequence (P02452 162-1218, chain 1 of 2): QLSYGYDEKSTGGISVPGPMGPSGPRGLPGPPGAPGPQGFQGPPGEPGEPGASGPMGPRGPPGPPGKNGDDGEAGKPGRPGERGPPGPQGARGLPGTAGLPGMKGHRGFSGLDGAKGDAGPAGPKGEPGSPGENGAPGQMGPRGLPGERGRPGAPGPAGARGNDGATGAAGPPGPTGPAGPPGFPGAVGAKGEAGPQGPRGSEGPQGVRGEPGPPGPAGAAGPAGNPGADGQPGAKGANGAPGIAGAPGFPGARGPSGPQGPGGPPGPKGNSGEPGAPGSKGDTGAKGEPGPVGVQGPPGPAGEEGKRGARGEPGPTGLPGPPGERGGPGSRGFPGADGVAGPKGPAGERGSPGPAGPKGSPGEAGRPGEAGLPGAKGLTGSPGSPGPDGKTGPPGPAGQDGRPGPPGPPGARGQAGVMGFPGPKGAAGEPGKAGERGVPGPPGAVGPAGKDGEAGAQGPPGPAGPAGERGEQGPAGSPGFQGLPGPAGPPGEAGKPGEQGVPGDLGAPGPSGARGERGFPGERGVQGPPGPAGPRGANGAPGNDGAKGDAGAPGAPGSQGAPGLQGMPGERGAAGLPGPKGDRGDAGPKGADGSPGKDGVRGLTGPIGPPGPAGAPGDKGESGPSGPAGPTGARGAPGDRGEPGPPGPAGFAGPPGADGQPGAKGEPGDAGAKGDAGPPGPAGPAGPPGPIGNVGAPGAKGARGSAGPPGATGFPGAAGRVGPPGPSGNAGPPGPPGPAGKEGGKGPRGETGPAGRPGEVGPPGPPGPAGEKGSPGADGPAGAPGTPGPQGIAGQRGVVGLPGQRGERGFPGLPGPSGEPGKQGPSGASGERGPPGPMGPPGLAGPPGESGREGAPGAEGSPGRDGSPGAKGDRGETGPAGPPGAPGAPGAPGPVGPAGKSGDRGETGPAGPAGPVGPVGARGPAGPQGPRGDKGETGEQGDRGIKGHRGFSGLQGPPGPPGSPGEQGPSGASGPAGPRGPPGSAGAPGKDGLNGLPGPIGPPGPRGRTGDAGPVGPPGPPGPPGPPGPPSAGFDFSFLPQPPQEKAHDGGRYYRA
T1 sequence (P08123 80-1119, chain 2 of 2): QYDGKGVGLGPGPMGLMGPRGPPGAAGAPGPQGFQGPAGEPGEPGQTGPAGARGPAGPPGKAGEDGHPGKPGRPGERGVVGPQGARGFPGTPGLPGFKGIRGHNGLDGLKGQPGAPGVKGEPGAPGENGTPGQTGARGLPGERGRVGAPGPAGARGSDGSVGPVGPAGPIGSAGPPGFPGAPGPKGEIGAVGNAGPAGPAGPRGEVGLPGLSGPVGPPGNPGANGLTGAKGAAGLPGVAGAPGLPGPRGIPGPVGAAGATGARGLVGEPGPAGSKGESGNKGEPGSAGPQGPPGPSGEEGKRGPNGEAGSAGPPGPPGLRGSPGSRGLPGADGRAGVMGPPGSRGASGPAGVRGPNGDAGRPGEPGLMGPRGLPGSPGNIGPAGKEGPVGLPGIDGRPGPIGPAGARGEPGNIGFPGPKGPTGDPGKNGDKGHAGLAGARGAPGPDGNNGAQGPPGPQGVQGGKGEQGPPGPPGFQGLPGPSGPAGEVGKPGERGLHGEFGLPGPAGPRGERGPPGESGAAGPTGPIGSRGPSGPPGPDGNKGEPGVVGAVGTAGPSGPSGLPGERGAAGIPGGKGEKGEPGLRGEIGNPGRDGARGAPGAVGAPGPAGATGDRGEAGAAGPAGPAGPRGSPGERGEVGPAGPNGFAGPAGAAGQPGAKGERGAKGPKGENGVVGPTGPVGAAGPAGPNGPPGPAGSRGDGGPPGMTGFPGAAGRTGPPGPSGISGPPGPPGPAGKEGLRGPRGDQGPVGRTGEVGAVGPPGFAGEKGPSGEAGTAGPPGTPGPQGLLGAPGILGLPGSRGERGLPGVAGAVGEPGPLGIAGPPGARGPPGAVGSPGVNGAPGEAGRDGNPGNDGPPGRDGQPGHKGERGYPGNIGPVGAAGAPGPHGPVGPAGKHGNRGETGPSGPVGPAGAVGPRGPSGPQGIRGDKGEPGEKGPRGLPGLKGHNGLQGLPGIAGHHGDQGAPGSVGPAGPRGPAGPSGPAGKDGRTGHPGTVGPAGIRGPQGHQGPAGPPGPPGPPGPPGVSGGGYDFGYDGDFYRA

[5] = target: T1, Acid-soluble human collagen type I …; experiment: SPR; remark: listed apart in the source
[6] = target: (GPO)10 triple-helical peptide, GCO(GPO)10GCOG-NH2; experiment: SPR
[7] = target: T2, mCD200RLa/rCD4d3+4, immobilised (mouse, UniProt Q6XJV4 26-241, biotin); experiment: SPR
T2 sequence (looked up): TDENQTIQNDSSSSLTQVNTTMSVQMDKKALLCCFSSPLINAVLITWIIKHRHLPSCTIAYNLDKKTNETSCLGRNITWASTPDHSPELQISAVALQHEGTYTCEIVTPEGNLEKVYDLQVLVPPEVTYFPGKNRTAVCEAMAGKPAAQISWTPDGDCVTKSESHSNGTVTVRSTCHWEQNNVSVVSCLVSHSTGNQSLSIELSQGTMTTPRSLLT

mCD200R, immobilised = target: T3, mCD200R, immobilised (mouse, UniProt Q9ES57 26-238); experiment: SPR
T3 sequence (looked up): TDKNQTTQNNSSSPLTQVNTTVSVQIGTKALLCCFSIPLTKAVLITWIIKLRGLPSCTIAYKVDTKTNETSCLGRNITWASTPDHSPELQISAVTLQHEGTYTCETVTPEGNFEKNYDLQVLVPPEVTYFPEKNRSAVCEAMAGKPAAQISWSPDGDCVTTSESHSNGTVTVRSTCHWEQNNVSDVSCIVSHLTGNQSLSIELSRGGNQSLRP

SPR = target: the molecule itself; experiment: SPR

Chain of CD47 ECD (Homo sapiens) (Q08722 19-323): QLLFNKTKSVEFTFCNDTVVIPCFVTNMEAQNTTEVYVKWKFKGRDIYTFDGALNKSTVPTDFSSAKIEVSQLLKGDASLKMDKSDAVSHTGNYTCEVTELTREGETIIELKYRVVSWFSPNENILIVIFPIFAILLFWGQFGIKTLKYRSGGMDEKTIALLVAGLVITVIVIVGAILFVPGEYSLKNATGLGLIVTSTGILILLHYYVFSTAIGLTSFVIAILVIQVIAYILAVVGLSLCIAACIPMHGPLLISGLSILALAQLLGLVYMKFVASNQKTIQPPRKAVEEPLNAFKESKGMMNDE
Chain of CD200R ECD (Homo sapiens) (Q8TD46 25-265): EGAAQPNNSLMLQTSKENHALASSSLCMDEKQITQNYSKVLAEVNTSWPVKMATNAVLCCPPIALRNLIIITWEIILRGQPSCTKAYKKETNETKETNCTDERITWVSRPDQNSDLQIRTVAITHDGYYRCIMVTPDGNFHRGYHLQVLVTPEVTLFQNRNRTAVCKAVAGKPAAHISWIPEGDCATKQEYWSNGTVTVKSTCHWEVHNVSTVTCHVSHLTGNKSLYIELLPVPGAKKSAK

Molecule: SIRPα ECD (from UniProt P78324)
- Kd (CD47 ECD (Homo sapiens)): 2 µM

Molecule: CD200 ECD (from UniProt P41217)
- Kd [1]: 2 µM

Molecule: CD200 ECD (from UniProt O54901)
- Kd [2]: > 500 µM
- Kd [3]: 4 µM

Molecule: CD2 ECD (from UniProt P06729)
- Kd (CD58 ECD (Homo sapiens)): 10 µM

- response [4]: 2700 RU
B1: hLAIR-1/rCD4d3+4, biotinylated (on beads or on the chip) (domain or fragment, human, UniProt Q6GTX8 22-165, looked up)
chain: QEEDLPRPSISAEPGTVIPLGSHVTFVCRGPVGVQTFRLERDSRSTYNDTEDVSQASPSESEARFRIDSVREGNAGLYRCIYYKPPKWSEQSDYLELLVKESSGGPDSPDTEPGSSAGPTQRPSDNSHNEHAPASQGLKAEHLY
modifications: biotin (biotin ligase BirA) on the sequence near the C terminus

- Kd [5]: 18 µM
- Kd [6]: 10 µM
B2: mLAIR-1/rCD4d3+4, soluble monomeric (domain or fragment, mouse, UniProt Q8BG84 22-144, looked up)
chain: QEGSLPDITIFPNSSLMISQGTFVTVVCSYSDKHDLYNMVRLEKDGSTFMEKSTEPYKTEDEFEIGPVNETITGHYSCIYSKGITWSERSKTLELKVIKENVIQTPAPGPTSDTSWLKTYSIY

- response [7]: > 3000 RU
- response (mCD200R, immobilised): > 3000 RU
B3: mCD200/rCD4d3+4 coupled beads (domain or fragment, mouse, UniProt O54901 31-232, looked up)
chain: QVEVVTQDERKALHTTASLRCSLKTSQEPLIVTWQKKKAVSPENMVTYSKTHGVVIQPAYKDRINVTELGLWNSSITFWNTTLEDEGCYMCLFNTFGSQKVSGTACLTLYVQPIVHLHYNYFEDHLNITCSATARPAPAISWKGTGTGIENSTESHFHSNGTTSVTSILRVKDPKTQVGKEVICQVLYLGNVIDYKQSLDKG
modifications: biotin on the tag that can be biotinylated

- Kd [5]: 39 µM
- Kd [6]: 33 µM
B4: mLilrb4/rCD4d3+4, soluble monomeric (domain or fragment, mouse, UniProt Q64281 24-238, looked up)
chain: GHLPKPIIWAEPGSVIAAYTSVITWCQGSWEAQYYHLYKEKSVNPWDTQVPLETRNKAKFNIPSMTTSYAGIYKCYYESAAGFSEHSDAMELVMTGAYENPSLSVYPSSNVTSGVSISFSCSSSIVFGRFILIQEGKHGLSWTLDSQHQANQPSYATFVLDAVTPNHNGTFRCYGYFRNEPQVWSKPSNSLDLMISETKDQSSTPTEDGLETYQK

B5: mLilrb4/rCD4d3+4, biotinylated (on beads or on the chip) (domain or fragment, mouse, UniProt Q64281 24-238, looked up)
chain: GHLPKPIIWAEPGSVIAAYTSVITWCQGSWEAQYYHLYKEKSVNPWDTQVPLETRNKAKFNIPSMTTSYAGIYKCYYESAAGFSEHSDAMELVMTGAYENPSLSVYPSSNVTSGVSISFSCSSSIVFGRFILIQEGKHGLSWTLDSQHQANQPSYATFVLDAVTPNHNGTFRCYGYFRNEPQVWSKPSNSLDLMISETKDQSSTPTEDGLETYQK
modifications: biotin (biotin ligase BirA) on the sequence near the C terminus
- response (SPR): 1750 RU

— PMC2696799 (European journal of immunology, 2009)
